For 10 molecules, Kd results are on record in article doi:10.1101/366336.

hPcf11 (in CF II);hClp1, sequence (O94913 whole entry, chain 1 of 2): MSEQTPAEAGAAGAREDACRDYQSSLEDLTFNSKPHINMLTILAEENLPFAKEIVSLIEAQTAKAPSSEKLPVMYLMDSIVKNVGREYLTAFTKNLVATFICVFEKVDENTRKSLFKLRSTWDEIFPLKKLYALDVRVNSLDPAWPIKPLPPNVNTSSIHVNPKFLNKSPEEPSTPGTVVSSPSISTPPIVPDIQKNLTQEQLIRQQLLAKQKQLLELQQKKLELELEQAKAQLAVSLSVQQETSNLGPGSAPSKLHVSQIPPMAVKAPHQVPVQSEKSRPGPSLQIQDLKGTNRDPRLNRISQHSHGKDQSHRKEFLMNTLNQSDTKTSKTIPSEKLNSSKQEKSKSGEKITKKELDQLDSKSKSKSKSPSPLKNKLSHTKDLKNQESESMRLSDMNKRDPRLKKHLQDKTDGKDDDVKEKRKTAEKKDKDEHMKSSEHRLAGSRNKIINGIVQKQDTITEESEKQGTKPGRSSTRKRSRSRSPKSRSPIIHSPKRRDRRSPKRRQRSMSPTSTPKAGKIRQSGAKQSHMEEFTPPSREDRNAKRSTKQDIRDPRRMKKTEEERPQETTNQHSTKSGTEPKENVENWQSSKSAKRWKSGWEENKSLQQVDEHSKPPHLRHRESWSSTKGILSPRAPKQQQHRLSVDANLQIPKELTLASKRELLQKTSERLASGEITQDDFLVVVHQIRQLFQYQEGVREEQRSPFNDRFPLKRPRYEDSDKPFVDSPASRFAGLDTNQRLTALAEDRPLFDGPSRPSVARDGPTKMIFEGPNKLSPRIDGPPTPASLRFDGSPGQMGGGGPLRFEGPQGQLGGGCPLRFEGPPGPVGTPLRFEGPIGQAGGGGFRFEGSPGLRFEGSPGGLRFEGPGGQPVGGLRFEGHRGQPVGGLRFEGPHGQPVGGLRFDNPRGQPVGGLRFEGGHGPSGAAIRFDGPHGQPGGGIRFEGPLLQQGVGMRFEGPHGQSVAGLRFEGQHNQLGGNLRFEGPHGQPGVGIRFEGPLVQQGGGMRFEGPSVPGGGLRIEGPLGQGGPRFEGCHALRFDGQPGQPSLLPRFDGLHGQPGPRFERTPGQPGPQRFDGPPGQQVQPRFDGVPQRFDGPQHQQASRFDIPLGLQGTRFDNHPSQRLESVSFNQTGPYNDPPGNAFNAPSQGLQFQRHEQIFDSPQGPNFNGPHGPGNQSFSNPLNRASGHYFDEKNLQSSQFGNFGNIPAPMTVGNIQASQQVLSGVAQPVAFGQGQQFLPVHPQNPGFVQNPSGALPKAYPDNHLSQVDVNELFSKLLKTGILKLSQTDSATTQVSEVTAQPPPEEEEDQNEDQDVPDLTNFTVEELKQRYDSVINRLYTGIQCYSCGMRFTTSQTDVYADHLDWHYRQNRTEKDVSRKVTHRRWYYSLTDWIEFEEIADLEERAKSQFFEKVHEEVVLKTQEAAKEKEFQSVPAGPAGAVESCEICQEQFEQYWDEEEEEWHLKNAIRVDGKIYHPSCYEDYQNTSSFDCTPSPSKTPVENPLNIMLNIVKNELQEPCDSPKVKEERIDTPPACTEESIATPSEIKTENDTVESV
hPcf11 (in CF II);hClp1, sequence (Q92989 whole entry, chain 2 of 2): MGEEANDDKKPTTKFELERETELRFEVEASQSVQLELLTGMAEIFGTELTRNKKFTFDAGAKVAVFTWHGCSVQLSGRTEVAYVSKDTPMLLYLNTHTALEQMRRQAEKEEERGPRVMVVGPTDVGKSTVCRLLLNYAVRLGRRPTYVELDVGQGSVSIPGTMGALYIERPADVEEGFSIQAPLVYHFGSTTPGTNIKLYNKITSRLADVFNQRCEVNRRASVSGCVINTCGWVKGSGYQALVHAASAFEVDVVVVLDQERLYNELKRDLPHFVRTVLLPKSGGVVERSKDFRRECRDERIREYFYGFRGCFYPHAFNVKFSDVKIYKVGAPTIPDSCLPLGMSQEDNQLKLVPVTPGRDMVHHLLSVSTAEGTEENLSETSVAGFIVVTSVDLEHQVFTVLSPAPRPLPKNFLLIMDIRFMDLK

This series has as its target hPcf11 (in CF II);hClp1 (human;human, UniProt O94913;Q92989 1-1555;1-425, |). Description: EMSA.
GGGGGGGGGGGG (ssRNA) [G12] yielded a Kd of 21 ± 9 nM.
The value for CCCUUUAAGUGGGUCACG (ssRNA) [BS2-d2] was 54 nM.
Next, GGGGGGGGGGG (ssRNA) [G11]: 41 nM; UUUAAGUGGGUCACG (ssRNA) [BS2-d3]: 105 nM.
The value for GGGUUUAAGUGGGUCACGUUUAAAC (ssRNA) [BS2] was 11 nM; that for GGGGGGGGGGGGG (ssRNA) [G13] was 21 ± 12 nM; that for GGGUUUAAGUGGGUCACG (ssRNA) [BS2-d1] was 13 nM.
In turn, GGGGGAGGUGUGGGAGG (ssRNA) [208-224] yielded an equilibrium dissociation constant (Kd) of 5.2 nM.
The value for GGGGGAGGUGUGGGAGGU (ssRNA) [208-225] was 2.6 nM.
GGUUCAGGGGGAGGUGUGGGAGG (ssRNA) [202-224] registered a Kd of 0.8 nM.
